Source: PMC7035975 (Journal of molecular and cellular cardiology, 2019)

Molecular target: the molecule itself
Test: SDS-PAGE and immunoblot of the PLB pentamer

B1: L31A phospholamban mutant (untagged) (natural protein, human, UniProt P26678 1-52, looked up)
chain: MEKVQYLTRSAIRRASTIEMPQQARQKLQNAFINFCLILICLLLICIIVMLL
With B1 the “stoichiometry N” value was 5.
